Holding throughout (test): fluorescence polarisation
Assay [1] concerns the target TAMRA-labeled CoV-2 nsp1 C-K R124A/K125A (SARS-CoV-2) (UniProt P0DTD1).
Assay [2] has as its target TAMRA-labeled CoV-2 nsp1 C-K R99A (SARS-CoV-2) (UniProt P0DTD1).
The target in assay [3] is TAMRA-labeled CoV-2 nsp1 C-K, wild type (SARS-CoV-2) (UniProt P0DTD1).

Consider “purified ribosomes (crude 80S from HeLa cell lysate) (from UniProt P15880;P23396;P62847;P63244) (complex)”, for which the fold increase in Kd against WT nsp1 was determined as 2 fold in assay [1] and 1.6 fold in assay [2]. The Kd in assay [3] turned out to be 539 nM.

What is called Kd is the concentration at which binding is half-saturated. Read a low Kd as a tighter complex.
